Assay results taken from the supplement of paper PMC9112550, “Optimization of the antimicrobial peptide Bac7 by deep mutational scanning” (BMC Biology, 2022).

System: Escherichia coli TOP10
Assay: shrunken log2 fold change of peptide-encoding DNA abundance (4.5 h post-induction vs induction); higher = less antimicrobial activity (less host growth inhibition)
Conditions: time post-induction: 4.5 h; library: site-saturation at positions 5, 18, 19, 20
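Note: peptides expressed intracellularly from a pBAD plasmid library in pooled LB shake-flask culture, induced with 0.3% L-arabinose, DNA abundance read by NGS, three biological replicates, DESeq2 with apeglm shrinkage.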

Q: RRIRIRPPRLPRPRPRPCWWPRP was tested. Which “shrunken log2 fold change” value did it give?
A: 0.082

Q: For RRIRKRPPRLPRPRPRPPGWPRP, which “shrunken log2 fold change” value is on record?
A: 0.675

Q: For RRIRCRPPRLPRPRPRPYMMPRP, which “shrunken log2 fold change” value is on record?
A: -0.293

Q: With RRIRERPPRLPRPRPRPANGPRP as the sequence, how does the “shrunken log2 fold change” value read?
A: -0.042

Q: How did the “shrunken log2 fold change” value turn out when RRIRYRPPRLPRPRPRPFNVPRP was run?
A: 0.0019

Q: For RRIRCRPPRLPRPRPRPADHPRP, which “shrunken log2 fold change” value is on record?
A: 0.0117

Q: Which “shrunken log2 fold change” value does the source give for RRIRKRPPRLPRPRPRPMNDPRP here?
A: 0.188

Q: For RRIRKRPPRLPRPRPRPQAKPRP, which “shrunken log2 fold change” value is on record?
A: -0.00692

Q: Which “shrunken log2 fold change” value does the source give for RRIRIRPPRLPRPRPRPCQWPRP here?
A: 0.0525

Q: RRIRPRPPRLPRPRPRPMLTPRP was tested. Which “shrunken log2 fold change” value did it give?
A: -0.333

Q: RRIRRRPPRLPRPRPRPQMYPRP was tested. Which “shrunken log2 fold change” value did it give?
A: -0.183

Q: With RRIRGRPPRLPRPRPRPWGMPRP as the sequence, how does the “shrunken log2 fold change” value read?
A: 0.0572

Q: How did the “shrunken log2 fold change” value turn out when RRIRIRPPRLPRPRPRPYFNPRP was run?
A: -1.29

Q: Which “shrunken log2 fold change” value does the source give for RRIRHRPPRLPRPRPRPVMGPRP here?
A: 0.0268

Q: With RRIRGRPPRLPRPRPRPEGFPRP as the sequence, how does the “shrunken log2 fold change” value read?
A: 1.56

Q: Which “shrunken log2 fold change” value does the source give for RRIRKRPPRLPRPRPRPWTQPRP here?
A: 0.0628

Q: With RRIRHRPPRLPRPRPRPPKTPRP as the sequence, how does the “shrunken log2 fold change” value read?
A: 0.177

Q: Which “shrunken log2 fold change” value does the source give for RRIRNRPPRLPRPRPRPMVFPRP here?
A: -0.000155

Q: For RRIRMRPPRLPRPRPRPWPTPRP, which “shrunken log2 fold change” value is on record?
A: 0.675

Q: How did the “shrunken log2 fold change” value turn out when RRIRGRPPRLPRPRPRPFDYPRP was run?
A: -0.145

Q: RRIRKRPPRLPRPRPRPEFHPRP was tested. Which “shrunken log2 fold change” value did it give?
A: 0.131

Q: How did the “shrunken log2 fold change” value turn out when RRIRHRPPRLPRPRPRPQLPPRP was run?
A: 0.181

Q: With RRIRKRPPRLPRPRPRPQYDPRP as the sequence, how does the “shrunken log2 fold change” value read?
A: -0.212

Q: With RRIRKRPPRLPRPRPRPHHIPRP as the sequence, how does the “shrunken log2 fold change” value read?
A: -0.165

Q: Which “shrunken log2 fold change” value does the source give for RRIRNRPPRLPRPRPRPMVVPRP here?
A: 0.00587

Q: RRIRGRPPRLPRPRPRPQLHPRP was tested. Which “shrunken log2 fold change” value did it give?
A: 0.231

Q: With RRIRSRPPRLPRPRPRPNIRPRP as the sequence, how does the “shrunken log2 fold change” value read?
A: 0.0389

Q: For RRIRDRPPRLPRPRPRPPTCPRP, which “shrunken log2 fold change” value is on record?
A: 0.0486

Q: For RRIRIRPPRLPRPRPRPVEFPRP, which “shrunken log2 fold change” value is on record?
A: -0.0453

Q: Which “shrunken log2 fold change” value does the source give for RRIRTRPPRLPRPRPRPMYWPRP here?
A: -0.131

Q: For RRIRARPPRLPRPRPRPMTFPRP, which “shrunken log2 fold change” value is on record?
A: -0.191

Q: How did the “shrunken log2 fold change” value turn out when RRIRQRPPRLPRPRPRPYAAPRP was run?
A: -0.175

Q: RRIRWRPPRLPRPRPRPLMPPRP was tested. Which “shrunken log2 fold change” value did it give?
A: 0.486

Q: How did the “shrunken log2 fold change” value turn out when RRIRKRPPRLPRPRPRPHYAPRP was run?
A: -0.0144

Q: Which “shrunken log2 fold change” value does the source give for RRIRGRPPRLPRPRPRPVDIPRP here?
A: 0.183

Q: For RRIRWRPPRLPRPRPRPKGAPRP, which “shrunken log2 fold change” value is on record?
A: 0.732

Q: How did the “shrunken log2 fold change” value turn out when RRIRKRPPRLPRPRPRPPHWPRP was run?
A: 0.756

Q: RRIRKRPPRLPRPRPRPTYFPRP was tested. Which “shrunken log2 fold change” value did it give?
A: -0.817

Q: For RRIRHRPPRLPRPRPRPARQPRP, which “shrunken log2 fold change” value is on record?
A: 0.14

Q: How did the “shrunken log2 fold change” value turn out when RRIRCRPPRLPRPRPRPEEWPRP was run?
A: 0.0214

Q: For RRIRARPPRLPRPRPRPNWGPRP, which “shrunken log2 fold change” value is on record?
A: -0.267

Q: With RRIRVRPPRLPRPRPRPHGPPRP as the sequence, how does the “shrunken log2 fold change” value read?
A: -0.156

Q: For RRIRERPPRLPRPRPRPSWVPRP, which “shrunken log2 fold change” value is on record?
A: -0.178

Q: Which “shrunken log2 fold change” value does the source give for RRIRCRPPRLPRPRPRPWMAPRP here?
A: -0.333

Q: RRIRIRPPRLPRPRPRPVWHPRP was tested. Which “shrunken log2 fold change” value did it give?
A: -0.413

Q: How did the “shrunken log2 fold change” value turn out when RRIRRRPPRLPRPRPRPFSGPRP was run?
A: -0.32

Q: RRIRGRPPRLPRPRPRPMKCPRP was tested. Which “shrunken log2 fold change” value did it give?
A: 0.0384

Q: Which “shrunken log2 fold change” value does the source give for RRIRNRPPRLPRPRPRPVVYPRP here?
A: -0.228

Q: With RRIRSRPPRLPRPRPRPWNHPRP as the sequence, how does the “shrunken log2 fold change” value read?
A: -0.0307

Q: With RRIRRRPPRLPRPRPRPKTFPRP as the sequence, how does the “shrunken log2 fold change” value read?
A: -0.0358
